experiment: yeast display, Sf9 membrane polyspecificity reagent, FACS + sequencing; frameworks hold sequencing errors
Method in brief: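 Nanobodies from a synthetic yeast display library (Saccharomyces cerevisiae BJ5465), induced 36–48 hours with galactose, were stained 1 hour at 4 °C with 10% biotinylated, detergent-solubilized Sf9 membrane reagent, enriched on streptavidin microbeads, then FACS-sorted. Anti-HA (expression) and streptavidin (reagent binding) fluorescence set low and high (top ~1%) gates. Polyreactivity labels come from the gate of origin. Genes were colony-PCR amplified, MiSeq 2 × 250 sequenced and filtered by CDR length.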

Sequence | polyreactivity (PSR sort gate)
QVQLVESGGGLVQAGGSLRLSCAASGLTFSYYTMGWYRPAPGKERELVAAITSSSGRTYYADSVKGRFSISRDNAKNTVYLQLNSLKPEDTAVYYCAADRWYREYDYWGLGTQVTVSS | low polyreactivity
QVQLVESGGGLVQAGGSLRLSCAASGLTFTGNAMGWYRQAPGKEREFVAAIRWSAGSTYYADSVKGRFTISRDNAKNTVYLQMNSLKPEDTAVYYCNAALNVSGHYPNDYWGQGTQVNVSS | low polyreactivity
QVQLVESGGGLVQAGGSLRLSCAASGLTFTKNVMGWYRQAPGKERELVAVISRSGGSTYYADSVKGRFTISRDNAKNTVYLQMNSLKPEDTAVYYCNVKGPGPSRGNYWGQGTQVTVSS | low polyreactivity
QVQLVESGGGLVQAGGSLRLSCAASGLTFTPNAMGWYRQAPGKEREFVAAITWRGGRTYYADSVKGRFTISRDNAKNTVYLQMNSLKPEDTAVYYCAVTYRPTYQLDYWGQGTQVTVSS | high polyreactivity
QVQLVESGGGLVQAGGSLRLSCAASGLTFTRYAMGWYIQAPGKEREMVAAISKNGGSTYYADSVKGRFTISRDNAKNTVYLQMNSLKPEDTAVYYCAARRSTSYPAGYDYRGQGTQVTVSS | high polyreactivity
QVQLVESGGGLVQAGGSLRLSCAASGLTFTSYAMGWYRQAPGKERELVAAIDWSGGRTYYADSVKGRFTISRDNAKNTVYLQMNSLKPEDTAVYYCAAYSRNRSLRFNYWGQGTQVTVSS | high polyreactivity
QVQLVESGGGLVQAGGSLRLSCAASGLTFTSYAMGWYRQAPGKERELVAAITAGGVSTYYADSEKGRFTISRDNAKNTVYLQMNSLKPEDTAVYYCAVDPPYSNPITINEDYWGQGTQVTVSS | low polyreactivity
QVQLVESGGGLVQAGGSLRLSCAASGLTFTTYTMGWYRQAPGKERELVAAISSRGGSTYYADSVKGRFTISRDNAKNTVYLQMNRLKPEDTAVYYCNAPRPHRMDWGQGTQVTVSS | high polyreactivity
QVQLVESGGGLVQAGGSLRLSCAASGLTFTTYTMGWYRQAPGKERELVAAISSRGGSTYYADSVKGRFTISRDNAKNTVYLQMNSLKPEDTAVYYFNAPRPHRMDWGQGTQVTVSS | high polyreactivity
QVQLVESGGGLVQAGGSLRLSCAASGLTFVFYAMGWYRQAPGKETELVAAISSSGGSTNYADSVKGRFTISRDNEKNTVYLQMKSLKPEDTAVYYCAATPYYSQYDYWGQGTQVTVSS | high polyreactivity
QVQLVESGGGLVQAGGSLRLSCAASGLTFVNYAMGWYRQAPGKERELVATISKTGGSTYYADSVKGRFTISRDNAKNTVYLQMNSLKPEDTAVYYCAVDAFYYKWYDYWGQGTQVTVSS | high polyreactivity
QVQLVESGGGLVQAGGSLRLSCAASGLTFVPYAMGWSRQAPGNERELFAAITWSGGSTYYADSVKGRFTISRDNAKNTVYLQMNSLKQEDTAVYYCAADFLLSTSTEYYYWGHGTQVTVSS | high polyreactivity
QVQLVESGGGLVQAGGSLRLSCAASGLTFVYYAMGWYRQAPGKERELVAAISSGGRTYYADSVKGRFTISRDNAKNTVYLQMNSLKPEDTGVYYCAAYGGTHYTYRYDYWGQGTQVNVSS | high polyreactivity
QVQLVESGGGLVQAGGSLRLSCAASGLTFWDYAMGWYRQAPGKERELVAGINTRGTSTYYADSVKGRFTISRDNAKNTVYLQMNSLKPEDTAVYYCAAEFFGYWYGIQYDYWGQGTQVTVSS | high polyreactivity
QVQLVESGGGLVQAGGSLRLSCAASGLTFWWYAMGWYRQAPGKERELVAAISSSGGSTYYADSVKGRFTISRDIAKNTVYLQMNSLKPEDTAVYYCAVASWDNYWDPYGYWGQGTQVTVSS | low polyreactivity
QVQLVESGGGLVQAGGSLRLSCAASGLTFWWYAMGWYRQAPGKQRELVAGITGGGSTSYADSVKGRFTISRDNAKNTVYLQMNSLKPEDTAVYYCAASPYNGQRTWYKYFFLGDYWGQGTQVTVSS | high polyreactivity
